Laboratory results as given in patent US20260151501A1, “ANTIBODY-DRUG CONJUGATE COMPRISING ANTI-CLAUDIN-18.2 ANTIBODY, AND THERAPEUTIC USE THEREOF FOR CANCER” (ABTIS CO., LTD., priority 2022, published 2026).

Experiments:
[1] = target: claudin18.2 protein (CLDN18.2) on CLDN18.2-positive cancer cell lines (MIA PaCa-2~CLDN18.2, SNU601, PATU8988S, NUGC-4) (UniProt P56856); assay: cell-based or functional assay
[2] = target: claudin18.2 protein (CLDN18.2) on CLDN18.2-positive cancer cell lines (MIA PaCa-2~CLDN18.2, SNU601, PATU8988S, NUGC-4) (UniProt P56856); assay: cell-based ELISA (OD 450 nm), SNU601 (CLDN18.2+) cells; set-up: unit not given here
[3] = target: claudin18.2 protein (CLDN18.2) on CLDN18.2-positive cancer cell lines (MIA PaCa-2~CLDN18.2, SNU601, PATU8988S, NUGC-4) (UniProt P56856); assay: cell-based ELISA (OD 450 nm), PATU8988S (CLDN18.2+) cells
[4] = target: claudin18.2 protein (CLDN18.2) on CLDN18.2-positive cancer cell lines (MIA PaCa-2~CLDN18.2, SNU601, PATU8988S, NUGC-4) (UniProt P56856); assay: cell-based ELISA (OD 450 nm), MIA PaCa-2 (CLDN18.2+) cells
[5] = target: CLDN18.2~VLP (virus-like particle) expressing the claudin18.2 protein, CSB-MP005498HU (A5), CUSABIO (UniProt P56856); assay: indirect ELISA (OD 450 nm) on coated CLDN18.2 VLP, regression in GraphPad Prism
[6] = target: claudin18.2 protein (CLDN18.2) on CLDN18.2-positive cancer cell lines (MIA PaCa-2~CLDN18.2, SNU601, PATU8988S, NUGC-4) (UniProt P56856); assay: cell-based ELISA, PATU8988S (CLDN18.2+) cells; given as Kd, text calls it EC50
[7] = target: claudin18.2 protein (CLDN18.2) on CLDN18.2-positive cancer cell lines (MIA PaCa-2~CLDN18.2, SNU601, PATU8988S, NUGC-4) (UniProt P56856); assay: cell-based ELISA, MIA PaCa-2 (CLDN18.2+) cells; given as Kd, text calls it EC50
[8] = target: T1, claudin18.2 protein (CLDN18.2) (Homo sapiens, UniProt P56856); assay: Indirect ELISA binding to CLDN18.2 VLP; settings: CLDN18.2 (antigen protein) VLP, OD at 450 nm
T1 construct: purchased CUSABIO TECHNOLOGY LLC CSB-MP005498HU (A5)
Description: (§1) OD value measurement through ELISA was performed by measuring the absorbance at 450 nm using a UV-Vis spectrometer.
To confirm the binding strength to an antigen, a CLDN18.2˜VLP (virus-like particle) expressing the claudin18.2 protein (CLDN18.2) was prepared. At this time, CLDN18.2˜VLP is CSB-MP005498HU (A5) from CUSABIO TECHNOLOGY LLC.
After a 96-well plate was coated with the CLDN18.2 VLP for ELISA and treated with each of antibody-A and ADC-A, indirect ELISA was performed to measure OD values.
The measured results were used for a regression analysis in GraphPad PRISM® 9.0 software to calculate EC50 and Bmax. The antigen binding affinity of antibody-A, ADC-A, antibody-B, and ADC-B were evaluated based on the calculated values.

[9] = test system: MIA PaCa-2˜CLDN18.2 cell line; assay: Cell-based ELISA binding to MIA PaCa-2˜CLDN18.2 cells
Description: as §1
(§2) Four types of cell lines (MIA PaCa-2˜CLDN18.2, PATU8988S, parental MIA PaCa-2 (CLDN18.2-), and SNU601) were prepared. At this time, MIA PaCa-2˜CLDN18.2 and PATU8988S are CLDN18.2-positive pancreatic cancer cell lines. MIA PaCa-2 (CLDN18.2-) is a CLDN18.2-negative pancreatic cancer cell line. SNU601 is a CLDN18.2-positive gastric cancer cell line.
(§3) The prepared cell lines were cultured in DMEM containing 10% FBS and 1% penicillin/streptomycin (MIA PaCa-2˜CLDN18.2, MIA PaCa-2 (CLDN18.2-)), RPMI1640 containing 10% FBS and 1% penicillin/streptomycin (SNU601), and DMEM containing 5% FBS, 5% serum, 1% penicillin/streptomycin, and 2 mM L-glutamine (PATU8988S) in an incubator under the conditions of 37° C. and 5% CO2.
(§4) The prepared cell lines were plated on 96-well plates for culture, and then treated with each of antibody-A, ADC-A, antibody-B, and ADC-B. Thereafter, cell-based ELISA was performed, and OD values were measured.
(§5) The measured results were used for a regression analysis in GraphPad PRISM® 9.0 software to calculate EC50 and Bmax. The cell binding affinity of antibody-A, ADC-A, antibody-B, and ADC-B to each cell line was evaluated based on the calculated values.

[10] = test system: SNU601 cell line; assay: Cell-based ELISA binding to SNU601 cells; settings: SNU601 (CLDN18.2+)
Description: as §1, §2, §3, §4, §5

[11] = test system: PATU8988S cell line; assay: Cell-based ELISA binding to PATU8988S cells; settings: PATU8988S (CLDN18.2+)
Description: as §1, §2, §3, §4, §5

[12] = test system: MIA PaCa-2 (CLDN18.2-) cell line; assay: Cell-based ELISA binding to MIA PaCa-2 (CLDN18.2-) cells; settings: CLDN18.2 negative cell line
Description: as §1, §2, §3, §4, §5

Sequence of ADC-B (antibody-B conjugated with MMAE) (VH): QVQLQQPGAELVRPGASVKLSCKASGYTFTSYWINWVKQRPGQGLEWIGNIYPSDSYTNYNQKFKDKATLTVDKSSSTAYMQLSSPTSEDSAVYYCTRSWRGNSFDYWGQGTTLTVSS
Sequence of ADC-B (antibody-B conjugated with MMAE) (VL): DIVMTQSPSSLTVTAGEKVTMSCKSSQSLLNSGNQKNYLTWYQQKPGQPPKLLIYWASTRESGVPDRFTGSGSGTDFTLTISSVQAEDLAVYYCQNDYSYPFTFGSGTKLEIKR
Sequence of Antibody-B (zolbetuximab antibody) (VH): as the sequence (VH) above
Sequence of Antibody-B (zolbetuximab antibody) (VL): as the sequence (VL) above

Row | Substance | IC50 (nM), cell viability (CellTiter-Glo), MIA PaCa-2 (CLDN18.2+) [1] | IC50 (nM), cell viability (CellTiter-Glo), NUGC4 (CLDN18.2+) [1] | IC50 (nM), cell viability (CellTiter-Glo), PATU8988S (CLDN18.2+) [1] | IC50 (nM), cell viability (CellTiter-Glo), SNU601 (CLDN18.2+) [1] | Bmax [2] | Bmax [3] | Bmax [4] | Bmax [5] | Kd [6] | Kd [7] | Bmax [8] | Bmax [9] | Bmax [10] | Bmax [11] | binding to parental MIA PaCa-2 [12]
1 | ADC-B (antibody-B conjugated with MMAE) | 2.12 nM | 20 nM | 7.19 nM | 10.4 nM | 2.8 | 2.33 | 3.33 | 2.87 | 10.5 nM | 0.065 µg/mL | – | – | – | – | –
2 | Antibody-B (zolbetuximab antibody) | – | – | – | – | 1.7 | 1.21 | 3.05 | 2.13 | 12.5 nM | – | – | – | – | – | –
3 | zolbetuximab [Antibody-B, reference compound] | – | – | – | – | – | – | – | – | – | – | 2.134 | 3.053 | 1.701 | 1.214 | none of the test substances bound
